In patent US20230340151A1 (Pfizer, published 2023):

Experiments:
[1] = target: T1, Human GUCY2c on tumor cells (T84, HT55) (human, UniProt P25092 24-1073); test: cell-based or functional assay
[2] = target: T2, Human CD3 epsilon-delta (human); test: SPR, CD3 captured by anti-His, 25 C
T2 construct: Single-chain epsilon-linker-delta with His6; also called huCD3
T2 chain: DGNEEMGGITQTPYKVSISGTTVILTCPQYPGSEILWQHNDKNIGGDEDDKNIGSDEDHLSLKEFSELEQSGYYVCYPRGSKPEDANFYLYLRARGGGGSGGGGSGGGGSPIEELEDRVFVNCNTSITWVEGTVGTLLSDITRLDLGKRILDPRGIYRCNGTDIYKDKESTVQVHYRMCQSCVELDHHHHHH

[3] = target: T3, Cynomolgus GUCY2C-ECD Cleaved (cynomolgus, UniProt P25092 24-430 (human entry)); test: SPR, GUCY2c directly immobilized, 37 C
T3 construct: also called CyGUCY2C
T3 chain: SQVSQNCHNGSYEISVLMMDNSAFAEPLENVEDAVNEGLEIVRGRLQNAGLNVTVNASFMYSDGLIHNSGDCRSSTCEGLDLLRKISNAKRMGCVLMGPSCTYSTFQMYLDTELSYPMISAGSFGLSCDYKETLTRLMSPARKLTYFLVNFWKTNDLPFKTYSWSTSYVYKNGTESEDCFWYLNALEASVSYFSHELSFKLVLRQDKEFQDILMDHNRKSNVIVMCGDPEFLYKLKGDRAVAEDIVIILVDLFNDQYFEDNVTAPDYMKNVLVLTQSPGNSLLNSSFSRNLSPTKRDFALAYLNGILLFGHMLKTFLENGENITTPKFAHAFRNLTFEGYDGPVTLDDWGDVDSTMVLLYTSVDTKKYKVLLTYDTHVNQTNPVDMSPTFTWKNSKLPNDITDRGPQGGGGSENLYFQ

[4] = target: T3, Cynomolgus GUCY2C-ECD Cleaved; test: direct DELFIA, 60 C
[5] = target: T4, Murine GUCY2C-ECD cleaved (mouse, UniProt Q3UWA6 20-433); test: SPR, GUCY2c directly immobilized, 37 C
T4 sequence: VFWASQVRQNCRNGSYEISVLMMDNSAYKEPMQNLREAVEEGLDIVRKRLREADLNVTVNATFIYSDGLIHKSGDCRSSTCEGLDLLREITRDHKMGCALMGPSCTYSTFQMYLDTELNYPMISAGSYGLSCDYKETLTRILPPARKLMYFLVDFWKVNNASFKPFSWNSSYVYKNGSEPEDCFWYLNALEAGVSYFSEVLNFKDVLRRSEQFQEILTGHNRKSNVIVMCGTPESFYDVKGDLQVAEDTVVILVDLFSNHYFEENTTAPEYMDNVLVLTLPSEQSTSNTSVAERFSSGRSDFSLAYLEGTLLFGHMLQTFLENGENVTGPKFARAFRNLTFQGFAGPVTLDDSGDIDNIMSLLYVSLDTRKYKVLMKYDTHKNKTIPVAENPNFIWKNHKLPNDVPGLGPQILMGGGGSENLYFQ

[6] = target: T5, Human GUCY2C full length (SEQ ID NO: 224), recombinant protein (human, UniProt P25092 24-430, limits assumed); test: SPR, GUCY2c directly immobilized, 25 C
T5 construct: also called huGUCY2C; biotinylated human GUCY2c
T5 sequence (P25092 24-430 F281L limits assumed): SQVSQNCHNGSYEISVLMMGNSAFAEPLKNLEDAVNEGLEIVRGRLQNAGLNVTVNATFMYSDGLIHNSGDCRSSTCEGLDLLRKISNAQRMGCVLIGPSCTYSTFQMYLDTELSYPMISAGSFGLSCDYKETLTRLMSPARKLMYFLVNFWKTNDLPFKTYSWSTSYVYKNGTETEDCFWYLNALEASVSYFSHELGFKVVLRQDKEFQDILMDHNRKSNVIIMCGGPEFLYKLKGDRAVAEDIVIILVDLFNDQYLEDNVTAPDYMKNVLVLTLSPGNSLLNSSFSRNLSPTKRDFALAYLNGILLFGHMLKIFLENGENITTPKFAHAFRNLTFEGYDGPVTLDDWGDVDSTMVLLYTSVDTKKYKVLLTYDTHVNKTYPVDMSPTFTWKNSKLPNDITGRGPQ

[7] = target: T6, Human CD3 on naive human T cells (human, UniProt P07766 23-207); test: flow cytometry titration on naive human T cells (PE-A Geo Mean against concentration in nM)
T6 construct: whole, on cells; on cells it stands in the CD3/TCR complex

[8] = target: T3, Cynomolgus GUCY2C-ECD Cleaved; test: SPR, GUCY2c directly immobilized, 25 C
[9] = target: T5, Human GUCY2C full length (SEQ ID NO: …); test: SPR, GUCY2c directly immobilized, 37 C
[10] = target: T7, Cynomolgus CD3 epsilon-delta (cynomolgus); test: SPR, CD3 captured by anti-His, printed 25 C (Table 33F)
T7 chain: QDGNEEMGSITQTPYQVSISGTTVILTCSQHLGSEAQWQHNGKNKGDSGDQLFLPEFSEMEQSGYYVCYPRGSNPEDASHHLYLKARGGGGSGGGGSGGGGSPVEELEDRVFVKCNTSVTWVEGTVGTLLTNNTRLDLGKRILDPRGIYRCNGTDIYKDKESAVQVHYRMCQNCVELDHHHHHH

[11] = target: T2, Human CD3 epsilon-delta; test: SPR, CD3 captured by anti-His, printed 25 C (Table 33C)
[12] = target: T6, Human CD3 on naive human T cells; test: cell-based or functional assay
[13] = target: T1, Human GUCY2c on tumor cells (T84, HT55); test: flow cytometry titration on T84 tumor cells (PE-A Geo Mean against Ab in nM)
[14] = target: T3, Cynomolgus GUCY2C-ECD Cleaved; test: direct DELFIA, RT
[15] = target: T4, Murine GUCY2C-ECD cleaved; test: SPR, GUCY2c directly immobilized, 25 C

T1 sequence (P25092 24-1073 limits assumed): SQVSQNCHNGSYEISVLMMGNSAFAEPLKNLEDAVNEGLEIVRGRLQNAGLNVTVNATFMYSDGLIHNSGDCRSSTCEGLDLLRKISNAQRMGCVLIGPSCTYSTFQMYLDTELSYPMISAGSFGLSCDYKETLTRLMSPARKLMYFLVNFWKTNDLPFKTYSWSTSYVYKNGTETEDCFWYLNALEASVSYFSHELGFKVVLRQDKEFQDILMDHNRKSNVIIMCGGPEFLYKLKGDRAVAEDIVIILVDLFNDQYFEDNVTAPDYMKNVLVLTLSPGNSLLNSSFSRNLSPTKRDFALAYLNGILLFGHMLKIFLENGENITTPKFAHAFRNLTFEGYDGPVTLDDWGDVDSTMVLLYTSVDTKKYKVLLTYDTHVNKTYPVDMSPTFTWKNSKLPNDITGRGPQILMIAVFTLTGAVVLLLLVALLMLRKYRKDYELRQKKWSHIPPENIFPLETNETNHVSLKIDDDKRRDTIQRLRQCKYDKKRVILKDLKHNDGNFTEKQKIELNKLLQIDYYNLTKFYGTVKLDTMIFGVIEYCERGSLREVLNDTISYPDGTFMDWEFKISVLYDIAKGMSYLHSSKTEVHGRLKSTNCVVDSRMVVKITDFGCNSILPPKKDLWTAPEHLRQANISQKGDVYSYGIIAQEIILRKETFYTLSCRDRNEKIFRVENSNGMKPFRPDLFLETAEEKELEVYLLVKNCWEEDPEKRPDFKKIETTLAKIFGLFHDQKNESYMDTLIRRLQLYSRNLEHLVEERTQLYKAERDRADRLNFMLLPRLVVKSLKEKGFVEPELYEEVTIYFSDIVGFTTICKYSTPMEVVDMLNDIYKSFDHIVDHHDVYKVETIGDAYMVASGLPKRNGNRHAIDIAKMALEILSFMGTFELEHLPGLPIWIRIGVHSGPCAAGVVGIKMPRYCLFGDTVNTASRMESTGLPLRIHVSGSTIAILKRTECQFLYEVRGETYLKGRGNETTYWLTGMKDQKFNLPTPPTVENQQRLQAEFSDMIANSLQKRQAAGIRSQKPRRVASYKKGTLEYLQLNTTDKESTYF

B1: GUCY2C-1608 (bispecific antibody)
chain 1: DIQLTQSPSSLSASVGDRVTITCRASESVDYYGSSLLQWYQQKPGKAPKLLIYAASKLASGVPSRFSGSGSGTDFTLTISSLQPEDFATYYCQQTRKAYTFGQGTKLEIKGGGSGGGGEVQLVESGGGLVQPGGSLRLSCAASGFTFSDYYMTWVRQAPGKGLEWVAFIRNQARGYTSDHNPSVKGRFTISRDNAKNSLYLQMNSLRAEDTAVYYCARDRPSYYVLDYWGQGTTVTVSSGCPPCPAPEAAGAPSVFLFPPKPKDTLMISRTPEVTCVVVDVSHEDPEVKFNWYVDGVEVHNAKTKPREEQYNSTYRVVSVLTVLHQDWLNGKEYKCKVSNKALPAPIEKTISKAKGQPREPQVCTLPPSREEMTKNQVSLWCLVKGFYPSDIAVEWESNGQPENNYKTTPPVLDSDGSFFLYSKLTVDKSRWQQGNVFSCSVMHEALHNHYTQKSLSLSPG
chain 2: DIQMTQSPSSLSASVGDRVTITCTSSQSLFNVRSQKNYLAWYQQKPGKAPKLLIYWASTRESGVPSRFSGSGSGTDFTLTISSLQPEDFATYYCKQSYDLFTFGGGTKVEIKGGGGSGGGGEVQLVESGGGLVQPGGSLRLSCAASGFTFSSYWMHWVRQAPGKGLEWIGEIKPSNELTNVHEKFKDRFTISVDKAKNSAYLQMNSLRAEDTAVYYCTRTITTTEGYWFFDVWGQGTLVTVSSGCPPCPAPEAAGAPSVFLFPPKPKDTLMISRTPEVTCVVVDVSHEDPEVKFNWYVDGVEVHNAKTKPREEQYNSTYRVVSVLTVLHQDWLNGKEYKCKVSNKALPAPIEKTISKAKGQPREPQVYTLPPCREEMTKNQVSLSCAVKGFYPSDIAVEWESNGQPENNYKTTPPVLDSDGSFFLVSKLTVDKSRWQQGNVFSCSVMHEALHNHYTQKSLSLSPG
notes: also called GUCY2c CD3 bispecific
[1]
  T84 tumor cell EC50 (T cell cytotoxicity, E:T 5:1): 0.19 nM
[2]
  Kd: 24 nM
  koff: 0.00999 s⁻¹
  kon: 418000 M⁻¹ s⁻¹
[3]
  Kd: 8.68 nM
  koff: 0.00166 s⁻¹
  kon: 191000 M⁻¹ s⁻¹
[4]
  EC50: 49.9 nM
[5]
  Kd: 90.2 nM
  koff: 0.0116 s⁻¹
  kon: 129000 M⁻¹ s⁻¹
[6]
  Kd: 7.47 nM
  koff: 0.000758 s⁻¹
  kon: 101000 M⁻¹ s⁻¹
[7]
  Kd: 35.4 nM
[8]
  Kd: 3.01 nM
  koff: 0.000417 s⁻¹
  kon: 138000 M⁻¹ s⁻¹
[9]
  Kd: 13.5 nM
  koff: 0.00217 s⁻¹
  kon: 161000 M⁻¹ s⁻¹
[10]
  Kd: 130 nM
  koff: 0.0665 s⁻¹
  kon: 514000 M⁻¹ s⁻¹
[11]
  Kd: 124 nM
  koff: 0.09 s⁻¹
  kon: 744000 M⁻¹ s⁻¹
[12]
  In vitro Cytotoxicity (nM), T-cell retargeting assay: 0.772 nM
[13]
  Kd: 0.62 nM
[14]
  EC50: 9.84 nM
[15]
  Kd: 17.3 nM
  koff: 0.00157 s⁻¹
  kon: 91200 M⁻¹ s⁻¹
